Test results: patent US20120189639A1 (Merck Sharp & Dohme, published 2012)

What was measured:
[1] = biological target: T1, human GITR on naïve CD4+ T cells (human, UniProt Q9Y5U5 26-241); experiment: cell-based or functional assay
T1 sequence: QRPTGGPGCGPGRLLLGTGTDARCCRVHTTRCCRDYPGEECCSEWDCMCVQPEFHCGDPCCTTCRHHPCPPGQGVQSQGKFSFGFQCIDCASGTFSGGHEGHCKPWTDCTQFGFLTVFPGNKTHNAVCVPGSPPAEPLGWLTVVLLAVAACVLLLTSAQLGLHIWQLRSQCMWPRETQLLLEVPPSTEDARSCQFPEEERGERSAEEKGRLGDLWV

hGITR-hIgG [2] = biological target: T2, hGITR-hIgG (human, UniProt Q9Y5U5 26-161, limits assumed); experiment: BIAcore SPR; hGITR-hIgG capture antigen, mAb analyte
T2 construct: not shown: human IgG part of the fusion
T2 sequence: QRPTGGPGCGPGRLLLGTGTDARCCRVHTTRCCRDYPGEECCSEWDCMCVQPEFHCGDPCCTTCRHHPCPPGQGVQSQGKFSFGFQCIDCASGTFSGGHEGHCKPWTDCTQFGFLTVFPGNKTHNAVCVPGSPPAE
Description: (§1) BIAcore determinations are performed essentially as described at Example 4 of co-pending, commonly assigned U.S. patent application Ser. No. 11/511,635 (filed 29 Aug. 2006). Briefly, binding partners are immobilized on a BIAcore CM5 sensor chip using standard amine-coupling procedure. Kinetic constants for the various interactions are determined using BIAevaluation software 3.1. The Kd is determined using the calculated dissociation and association rate constants.

hGITR-hIgG [3] = biological target: T2, hGITR-hIgG; experiment: BIAcore SPR; hGITR-hIgG capture antigen, mAb analyte; apparent Kd
Description: as §1

- proliferation of naïve CD4+ T cells, mean, at 0.04 ng/mL Ab [1]: 38500
- proliferation of naïve CD4+ T cells, mean, at 0.15 ng/mL Ab [1]: 33400
- proliferation of naïve CD4+ T cells, mean, at 0.61 ng/mL Ab [1]: 30200
- proliferation of naïve CD4+ T cells, mean, at 2.4 ng/mL Ab [1]: 35600
- proliferation of naïve CD4+ T cells, mean, at 9.8 ng/mL Ab [1]: 60000
- proliferation of naïve CD4+ T cells, mean, at 39.1 ng/mL Ab [1]: 104000
- proliferation of naïve CD4+ T cells, mean, at 156 ng/mL Ab [1]: 123000
- proliferation of naïve CD4+ T cells, mean, at 625 ng/mL Ab [1]: 120000
- proliferation of naïve CD4+ T cells, mean, at 2500 ng/mL Ab [1]: 107000
- proliferation of naïve CD4+ T cells, mean, at 10000 ng/mL Ab [1]: 91900
- koff (hGITR-hIgG [2]): 0.000919 s⁻¹
- kon (hGITR-hIgG [2]): 610000 M⁻¹ s⁻¹
- Kd (hGITR-hIgG [3]): 1.51 nM
B1: 6H6 (antibody, V domains shown)
VH: QVQLQQSGAELMKPGASVKISCKATGYTFSRYWIEWIKQRPGHGLEWIGEILPGSGSSNYNEKFKDKATFTADTSSNTAYMQFSSLTSEDSAVYYCARKVYYYAMDFWGQGTSVTVSS
VL: QIVLTQSPAIMSVSLGERVTVTCTASSSVSSSYFHWYQQKPGSSPKLWIYSTSNLASGVPARFSGSGSGTSYSLTISTMEAEDAATYYCHQYHRSPRTFGGGTKLEIKR
notes: Parental rodent anti-human GITR monoclonal antibody from a hybridoma; kappa VL; also called 6H6.C3; hybridoma PTA-9892
